Legend:
GST-Rabin8-F201A (human) = assay: pull-down
GST-Rabin8-L196A (human) = assay: pull-down

percent decrease of association against wild-type GST-Rabin8 (GST-Rabin8-F201A (human)): 52%
percent decrease of association against wild-type GST-Rabin8 (GST-Rabin8-L196A (human)): 39%
Substance: Rab8a (in vitro translated Rab8A-T22N or Rab8A-Q67L) (from UniProt P61006 1-207) (natural protein)
